The values below come from the supplement of paper PMC10201428.

The subject of data set [1] is VchCAST RNA-guided transposition machinery (E. coli BL21(DE3) host, lacZ target). The data set can be described thus: relative integration efficiency (T-RL orientation) vs wild-type transposon end (log2 (normalized fold change)); transposon end mutated: right end (5 bp flank + 75 bp right end); higher = more efficient transposition. The procedure, abridged:
(§1)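 Each barcoded pool, 1549 left-end or 1849 right-end transposon variants in a pUC57 mini-transposon donor, went into E. coli BL21(DE3) with a T7-driven effector plasmid (CRISPR array, tniQ-cas8-cas7-cas6, tnsA-tnsB-tnsC). Plates contained 0.1 mM IPTG and were held at 37°C for 18 h. Input plasmids and genomic integration junctions were PCR-amplified and read by Illumina sequencing, with two biological output replicates and four reference barcodes. Relative integration efficiency is the fold change of output over input barcode abundance, normalised to the reference barcodes and log-transformed.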

For data set [2] the test system is unchanged. The data set can be described thus: relative integration efficiency (T-LR orientation) vs wild-type transposon end (log2 (normalized fold change)); transposon end mutated: right end (5 bp flank + 75 bp right end); higher = more efficient transposition. The procedure, abridged: as §1

± gives the standard deviation of the averaged measurements.

As for “ACATTTGTTGATACAACCATAAAATGATAATTACACCCATAAATTGATAATTATCACACCCATAAATTGATATTGCCTCTTCTTTGCTCACGCATCTAGTCGGTCCACGTTTGGTTCGCACCGACAC”, the “relative integration efficiency (log2)” value was -0.231 ± 0.37 in data set [1] and -0.129 ± 0.28 in data set [2].

On to “ACATTTGTTGATACAACCATAAAATGATAATTACACCCATAAATTGATAATTATCACACCCATAAATTGATATTGCCTCTTTATGCAGGACGACGTACGCGTTCCATATAAACCTGTGCACCGACAC”, for which the “relative integration efficiency (log2)” value in data set [1] is 0.021 ± 0.25; in data set [2], -0.104 ± 0.19.

Turning to “ACATTTGTTGATACAACCATAAAATGATAATTACACCCATAAATTGATAATTATCACACCCATAAATTGATATTGCCTCTTTGTGAGCGGATAACAAGATCATAGTCAGACCAACATGCACCGACAC”, the “relative integration efficiency (log2)” value in data set [1] was -0.26 ± 0.07; in data set [2], -0.434 ± 0.17.

In the case of “ACATTTGTTGATACAACCATAAAATGATAATTACACCCATAAATTGATAATTATCACACCCATAAATTGATATTGCCTGAGATCATAGTCAGACCAACATTGCTACGACCCGTATTCGCACCGACAC”, the “relative integration efficiency (log2)” value was determined as 0.0616 ± 0.0024 in data set [1] and 0.172 ± 0.11 in data set [2].

Take “ACATTTGTTGATACAACCATAAAATGATAATTACACCCATAAATTGATAATTATCACACCCATAAATTGATATTGCGACTGATCATAGTCAGACCAACATTGCTACGACCCGTATTCGCACCGACAC”: the “relative integration efficiency (log2)” value in data set [1] was -0.0819 ± 0.0067; in data set [2], -0.0636 ± 0.17.

Regarding “ACATTTGTTGATACAACCATAAAATGATAATTACACCCATAAATTGATAATTATCACACCCATAAATTGATATTGCGAGAGATCATAGTCAGACCAACATTGCTACGACCCGTATTCGCACCGACAC”, the “relative integration efficiency (log2)” value in data set [1] was -0.286 ± 0.11; in data set [2], -0.165 ± 0.12.

As to “ACATTTGTTGATACAACCATAAAATGATAATTACACCCATAAATTGATAATTATCACACCCATAAATTGATATTGCTCTGATCATAGTCAGACCAACATTGCTACGACCCGTATTCGCACCGACACT”, the results for the “relative integration efficiency (log2)” value in data set [1] and in data set [2] were 0.126 ± 0.019 and -0.11 ± 0.21, respectively.

Regarding “ACATTTGTTGATACAACCATAAAATGATAATTACACCCATAAATTGATAATTATCACACCCATAAATTGATATTGCTTATGATCATAGTCAGACCAACATTGCTACGACCCGTATTCGCACCGACAC”, the results for the “relative integration efficiency (log2)” value in data set [1] and in data set [2] were 0.0482 ± 0.094 and -0.462 ± 0.31, respectively.

Take “ACATTTGTTGATACAACCATAAAATGATAATTACACCCATAAATTGATAATTATCACACCCATAAATTGATATTGGGAGTGATCATAGTCAGACCAACATTGCTACGACCCGTATTCGCACCGACAC”: the “relative integration efficiency (log2)” value was -0.111 ± 0.04 in data set [1] and 0.108 ± 0.15 in data set [2].

As for “ACATTTGTTGATACAACCATAAAATGATAATTACACCCATAAATTGATAATTATCACACCCATAAATTGATATTTAAGAGGATCATAGTCAGACCAACATTGCTACGACCCGTATTCGCACCGACAC”, the “relative integration efficiency (log2)” value in data set [1] was 0.179 ± 0.034; in data set [2], 0.08 ± 0.011.

On to “ACATTTGTTGATACAACCATAAAATGATAATTACACCCATAAATTGATAATTATCACACCCATAAATTGATATTTAAGCTGATCATAGTCAGACCAACATTGCTACGACCCGTATTCGCACCGACAC”, for which the “relative integration efficiency (log2)” value is -0.000531 ± 0.0027 in data set [1] and -0.0384 ± 0.075 in data set [2].

“ACATTTGTTGATACAACCATAAAATGATAATTACACCCATAAATTGATAATTATCACACCCATAAATTGATCGGTAAGAGGATCATAGTCAGACCAACATTGCTACGACCCGTATTCGCACCGACAC”: the “relative integration efficiency (log2)” value in data set [1] was -0.421 ± 0.075; in data set [2], 1.33 ± 0.2.

In the case of “ACATTTGTTGATACAACCATAAAATGATAATTACACCCATAAATTGATAATTATCACACCCATAAATTGATCTCTGATCATAGTCAGACCAACATTGCTACGACCCGTATTCGCACCGACACTGACT”, the “relative integration efficiency (log2)” value is -0.209 ± 0.021 in data set [1] and 0.731 ± 0.26 in data set [2].

Consider “ACATTTGTTGATACAACCATAAAATGATAATTACACCCATAAATTGATAATTATCACACCCATAAATTGCGCGGTAAGAGGATCATAGTCAGACCAACATTGCTACGACCCGTATTCGCACCGACAC”, for which the “relative integration efficiency (log2)” value was -0.4 ± 0.022 in data set [1] and 2.18 ± 0.12 in data set [2].

Regarding “ACATTTGTTGATACAACCATAAAATGATAATTACACCCATAAATTGATAATTATCACACCCATAAATTTCGCGGTAAGAGGATCATAGTCAGACCAACATTGCTACGACCCGTATTCGCACCGACAC”, the “relative integration efficiency (log2)” value in data set [1] was -0.719 ± 0.14; in data set [2] it was 2.22 ± 0.05.

As for “ACATTTGTTGATACAACCATAAAATGATAATTACACCCATAAATTGATAATTATCACACCCATAACGGTCGCGGTAAGAGGATCATAGTCAGACCAACATTGCTACGACCCGTATTCGCACCGACAC”, the “relative integration efficiency (log2)” value in data set [1] was -0.752 ± 0.12; in data set [2], 2.14 ± 0.13.

As for “ACATTTGTTGATACAACCATAAAATGATAATTACACCCATAAATTGATAATTATCACACCCATACCGGTCGCGGTAAGAGGATCATAGTCAGACCAACATTGCTACGACCCGTATTCGCACCGACAC”, the figures for the “relative integration efficiency (log2)” value in data set [1] and in data set [2] were -0.58 ± 0.031 and 2.44 ± 0.13, respectively.

With “ACATTTGTTGATACAACCATAAAATGATAATTACACCCATAAATTGATAATTATCACACCCATCCCGGTCGCGGTAAGAGGATCATAGTCAGACCAACATTGCTACGACCCGTATTCGCACCGACAC”, the “relative integration efficiency (log2)” value is -0.648 ± 0.11 in data set [1] and 2.36 ± 0.21 in data set [2].

Take “ACATTTGTTGATACAACCATAAAATGATAATTACACCCATAAATTGATAATTATCACACCCCGCCCGGTCGCGGTAAGAGGATCATAGTCAGACCAACATTGCTACGACCCGTATTCGCACCGACAC”: the “relative integration efficiency (log2)” value in data set [1] is -0.532 ± 0.054; in data set [2] it was 2.47 ± 0.19.

On to “ACATTTGTTGATACAACCATAAAATGATAATTACACCCATAAATTGATAATTATCACACCGTATAATTGATATTGCCTCTGATCATAGTCAGACCAACATTGCTACGACCCGTATTCGCACCGACAC”, for which the results for the “relative integration efficiency (log2)” value in data set [1] and in data set [2] were -0.648 ± 0.21 and 2.25 ± 0.06, respectively.

Turning to “ACATTTGTTGATACAACCATAAAATGATAATTACACCCATAAATTGATAATTATCACACCGTTAAATTGATATTGCCTCTGATCATAGTCAGACCAACATTGCTACGACCCGTATTCGCACCGACAC”, the “relative integration efficiency (log2)” value in data set [1] is -0.625 ± 0.1; in data set [2], 1.85 ± 0.26.

Take “ACATTTGTTGATACAACCATAAAATGATAATTACACCCATAAATTGATAATTATCACACGGATAAATTGATATTGCCTCTGATCATAGTCAGACCAACATTGCTACGACCCGTATTCGCACCGACAC”: the figures for the “relative integration efficiency (log2)” value in data set [1] and in data set [2] were -0.238 ± 0.062 and 1.28 ± 0.22, respectively.

With “ACATTTGTTGATACAACCATAAAATGATAATTACACCCATAAATTGATAATTATCACACGGTAAAATTGATATTGCCTCTGATCATAGTCAGACCAACATTGCTACGACCCGTATTCGCACCGACAC”, the “relative integration efficiency (log2)” value in data set [1] is -0.357 ± 0.043; in data set [2] it was 2.35 ± 0.067.

For the sequence “ACATTTGTTGATACAACCATAAAATGATAATTACACCCATAAATTGATAATTATCACAGGCATAAATTGATATTGCCTCTGATCATAGTCAGACCAACATTGCTACGACCCGTATTCGCACCGACAC”, the “relative integration efficiency (log2)” value in data set [1] was -0.0803 ± 0.09; in data set [2], 0.567 ± 0.2.

As for “ACATTTGTTGATACAACCATAAAATGATAATTACACCCATAAATTGATAATTATCACAGGGTTAAATTGATATTGCCTCTGATCATAGTCAGACCAACATTGCTACGACCCGTATTCGCACCGACAC”, the figures for the “relative integration efficiency (log2)” value in data set [1] and in data set [2] were -0.425 ± 0.14 and 2.33 ± 0.045, respectively.

On to “ACATTTGTTGATACAACCATAAAATGATAATTACACCCATAAATTGATAATTATCACCAAAATAAATTGATATTGCCTCTGATCATAGTCAGACCAACATTGCTACGACCCGTATTCGCACCGACAC”, for which the “relative integration efficiency (log2)” value in data set [1] was -0.112 ± 0.18; in data set [2], 2.72 ± 0.1.

For “ACATTTGTTGATACAACCATAAAATGATAATTACACCCATAAATTGATAATTATCACCAAACGCCCGGTCGCGGTAAGAGGATCATAGTCAGACCAACATTGCTACGACCCGTATTCGCACCGACAC”, the figures for the “relative integration efficiency (log2)” value in data set [1] and in data set [2] were -0.505 ± 0.14 and 2.47 ± 0.095, respectively.

On to “ACATTTGTTGATACAACCATAAAATGATAATTACACCCATAAATTGATAATTATCACCACCATAAATTGATATTGCCTCTGATCATAGTCAGACCAACATTGCTACGACCCGTATTCGCACCGACAC”, for which the results for the “relative integration efficiency (log2)” value in data set [1] and in data set [2] were 0.659 ± 0.12 and 1.14 ± 0.095, respectively.

With “ACATTTGTTGATACAACCATAAAATGATAATTACACCCATAAATTGATAATTATCACCCATAAATTGATATTGCCTCTGATCATAGTCAGACCAACATTGCTACGACCCGTATTCGCACCGACACTG”, the “relative integration efficiency (log2)” value was -0.448 ± 0.081 in data set [1] and 2.21 ± 0.045 in data set [2].

In the case of “ACATTTGTTGATACAACCATAAAATGATAATTACACCCATAAATTGATAATTATCACTGCCATAAATTGATATTGCCTCTGATCATAGTCAGACCAACATTGCTACGACCCGTATTCGCACCGACAC”, the “relative integration efficiency (log2)” value was -0.228 ± 0.042 in data set [1] and 1.72 ± 0.2 in data set [2].

In the case of “ACATTTGTTGATACAACCATAAAATGATAATTACACCCATAAATTGATAATTATCACTGGGATAAATTGATATTGCCTCTGATCATAGTCAGACCAACATTGCTACGACCCGTATTCGCACCGACAC”, the results for the “relative integration efficiency (log2)” value in data set [1] and in data set [2] were -0.4 ± 0.027 and 2.07 ± 0.067, respectively.

“ACATTTGTTGATACAACCATAAAATGATAATTACACCCATAAATTGATAATTATCAGTCCCATAAATTGATATTGCCTCTGATCATAGTCAGACCAACATTGCTACGACCCGTATTCGCACCGACAC”: the entries for the “relative integration efficiency (log2)” value in data set [1] and in data set [2] were -0.441 ± 0.031 and 1.51 ± 0.031, respectively.
